Key:
[1] = molecular target: Clostridium difficile toxin B (whole toxin B) (Clostridium difficile)
[2] = molecular target: Clostridium difficile toxin B (whole toxin B) (Clostridium difficile); test: cell-based or functional assay
[3] = molecular target: MDX1388

Substance | Kd [1] | koff [1] | kon [1] | Mean EC50, neutralization of TcdB on HT-29 cells (xCELLigence) [2] | IC50 (read off the curve) [3]
MDX1388 (antibody) | 3.84 nM | 0.000139 s⁻¹ | 36200 M⁻¹ s⁻¹ | 125 µg/mL | 
Clostridium difficile toxin B (whole toxin B) |  |  |  |  | 50 ng/mL

Reference: patent US20150290319A1
